The target in the assay is T1, recombinant human SHP-2 (human, UniProt Q06124 1-593).
T1 construct: SHP-2, protein tyrosine phosphatase with two SH2 domains, human, recombinant; The supplier is named only in the SPR methods; source: bought: R&D Systems, 1894-SH-100
T1 sequence (looked up): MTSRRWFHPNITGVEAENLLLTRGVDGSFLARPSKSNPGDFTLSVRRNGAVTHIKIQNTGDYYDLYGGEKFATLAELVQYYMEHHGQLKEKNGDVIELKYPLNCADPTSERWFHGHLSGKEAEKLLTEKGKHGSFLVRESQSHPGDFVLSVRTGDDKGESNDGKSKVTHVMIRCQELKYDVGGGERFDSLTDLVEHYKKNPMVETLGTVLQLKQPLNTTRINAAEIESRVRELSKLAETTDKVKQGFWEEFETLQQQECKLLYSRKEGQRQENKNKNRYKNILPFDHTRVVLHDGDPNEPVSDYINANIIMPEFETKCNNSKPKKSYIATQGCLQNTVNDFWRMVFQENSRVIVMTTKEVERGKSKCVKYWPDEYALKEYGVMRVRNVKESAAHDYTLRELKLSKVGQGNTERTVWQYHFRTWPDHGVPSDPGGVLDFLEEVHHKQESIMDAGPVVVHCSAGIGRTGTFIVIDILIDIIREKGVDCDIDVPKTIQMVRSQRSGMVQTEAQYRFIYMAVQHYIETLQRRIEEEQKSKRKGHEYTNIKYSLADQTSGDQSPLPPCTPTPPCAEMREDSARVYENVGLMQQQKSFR
The experiment in a line: ELISA; wells coated with SHP-2 (5 µg/mL, TBS pH 8) or BSA; GST:LRP1-ICD or PDGFRβ KD titrated in TBS, 0.5% BSA, 0.05% Tween 20, sodium orthovanadate, overnight at 4°C; detected with anti-GST or anti-PDGFRβ antibody; fit to a single class of sites.

Where two headings read alike, the source gives them in different places.

With “phosphorylated GST:LRP1-ICD (LDL receptor-related protein 1 intracellular domain fused to glutathione S-transferase, tyrosine-phosphorylated) (domain or fragment)”, the Kd came to 18 nM.

B1: phosphorylated PDGFRβ kinase domain (domain or fragment, UniProt P09619 558-1106, looked up)
chain: KKPRYEIRWKVIESVSSDGHEYIYVDPMQLPYDSTWELPRDQLVLGRTLGSGAFGQVVEATAHGLSHSQATMKVAVKMLKSTARSSEKQALMSELKIMSHLGPHLNVVNLLGACTKGGPIYIITEYCRYGDLVDYLHRNKHTFLQHHSDKRRPPSAELYSNALPVGLPLPSHVSLTGESDGGYMDMSKDESVDYVPMLDMKGDVKYADIESSNYMAPYDNYVPSAPERTCRATLINESPVLSYMDLVGFSYQVANGMEFLASKNCVHRDLAARNVLICEGKLVKICDFGLARDIMRDSNYISKGSTFLPLKWMAPESIFNSLYTTLSDVWSFGILLWEIFTLGGTPYPELPMNEQFYNAIKRGYRMAQPAHASDEIYEIMQKCWEEKFEIRPPFSQLVLLLERLLGEGYKKKYQQVDEEFLRSDHPAILRSQARLPGFHGLRSPLDTSSVLYTAVQPNEGDNDYIIPLPDPKPEVADEGPLEGSPSLASSTLNEVNTSSTISCDSPLEPQDEPEPEPQLELQVEPEPELEQLPDSGCPAPRAEAEDSFL
modifications: phosphotyrosine (autophosphorylated with ATP and MgCl2; sites not mapped here)
notes: PDGF receptor β (PDGFRβ), kinase domain (KD); as far as I recall the product is a tagged human cytoplasmic fragment reaching to the C-terminus, to be checked with the supplier; also called pPDGFRβ KD; phospho-PDGFRβ KD; source: bought: Millipore (14-463); phosphorylated by incubating the protein with 1 mM ATP and 1 mM MgCl2
Consider B1, for which, under “both partners purified”, the Kd was found to be 7.8 ± 1 nM.

B2: unphosphorylated PDGFRβ kinase domain (domain or fragment, UniProt P09619 558-1106, looked up)
chain: KKPRYEIRWKVIESVSSDGHEYIYVDPMQLPYDSTWELPRDQLVLGRTLGSGAFGQVVEATAHGLSHSQATMKVAVKMLKSTARSSEKQALMSELKIMSHLGPHLNVVNLLGACTKGGPIYIITEYCRYGDLVDYLHRNKHTFLQHHSDKRRPPSAELYSNALPVGLPLPSHVSLTGESDGGYMDMSKDESVDYVPMLDMKGDVKYADIESSNYMAPYDNYVPSAPERTCRATLINESPVLSYMDLVGFSYQVANGMEFLASKNCVHRDLAARNVLICEGKLVKICDFGLARDIMRDSNYISKGSTFLPLKWMAPESIFNSLYTTLSDVWSFGILLWEIFTLGGTPYPELPMNEQFYNAIKRGYRMAQPAHASDEIYEIMQKCWEEKFEIRPPFSQLVLLLERLLGEGYKKKYQQVDEEFLRSDHPAILRSQARLPGFHGLRSPLDTSSVLYTAVQPNEGDNDYIIPLPDPKPEVADEGPLEGSPSLASSTLNEVNTSSTISCDSPLEPQDEPEPEPQLELQVEPEPELEQLPDSGCPAPRAEAEDSFL
notes: PDGF receptor β (PDGFRβ), kinase domain (KD); also called PDGFRβ KD; non-phosphorylated PDGFRβ KD; source: bought: Millipore (14-463)
As to B2, under “both partners purified”, the dissociation constant (Kd) worked out at 326 ± 68 nM.

For the origin of these results see publication PMC3724782, “The LDL Receptor-Related Protein 1 (LRP1) Regulates the PDGF Signaling Pathway by Binding the Protein Phosphatase SHP-2 and Modulating SHP-2- Mediated PDGF Signaling Events” (PLoS ONE, 2013).
